Source: US20050142141A1 (University of California, published 2005)

Target: T1, soluble extracellular domain (ECD) of the human insulin receptor (human, UniProt P06213 28-956, limits assumed)
T1 construct: extracellular domain; also called HIR ECD; extracellular domain of the HIR
Assay: immunoradiometric assay (IRMA) on HIR ECD with [125I]-murine 83-14 MAb as ligand
Excerpt: In the IRMA, the antigen was the extracellular domain of the HIR, which was produced from transfected CHO cells and purified by lectin affinity chromatography of CHO cell conditioned medium.

Kd [nM] | Binder
2.7 | murine 83-14 HIRMAb (antibody, V domains shown, Intact murine IgG from the 83-14 hybridoma; the murine constant regions and isotype are not; also called HIRMAb 83-14; MAb 83-14) VH: QVQLQESGPELVKPGALVKISCKASGYTFTNYDIHWVKQRPGQGLEWIGWIYPGDGSTKYNEKFKGKATLTADKSSSTAYMHLSSLTSEKSAVYFCAREWAYWGQGTLVTVSA VL: DIQMTQSPSSLSASLGERVSLTCRASQDIGGNLYWLQQGPDGTIKRLIYATSSLDSGVPKRFSGSRSGSDYSLTISSLESEDFVDYYCLQYSSSPWTFGGGTKMEIKR
3.7 | Version 5 humanized HIRMAb (antibody, human IgG1, V domains shown, also called version 5 HIRMAb; Version 5 humanized 83-14 HIRMAb) VH: QVQLLESGAELVRPGSSVKISCKASGYTFTNYDIHWVKQRPGQGLEWIGWIYPGDGSTKYNEKFKGKATLTADKSSSTAYMHLSSLTSEKSAVYFCAREWAYWGQGTTVTVSA VL: DIQMTQSPSSLSASVGERVTITCRASQDIGGNLYWYQQKPGKAPKLLIYATSSLDSGVPSRFSGSGSGTDYTFTISSLQPEDIATYYCLQYSSSPWTFGQGTKVEIKR
